# From patent US20240182536A1 (MURAL ONCOLOGY, published 2024)
# Numbering of substitutions follows the chain as printed. Names may count otherwise.
# T1: mouse IL-18 binding protein (mouse, UniProt Q9Z0M9 29-193)
# T1 sequence (looked up): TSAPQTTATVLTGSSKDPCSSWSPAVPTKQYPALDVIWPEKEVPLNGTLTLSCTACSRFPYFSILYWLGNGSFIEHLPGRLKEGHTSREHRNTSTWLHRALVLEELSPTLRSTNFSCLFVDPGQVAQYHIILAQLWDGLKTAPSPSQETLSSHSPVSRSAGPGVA
# T2: mouse IL-18 receptors on PathHunter U2OS mIL18-NF-kb reporter cells (mouse, UniProt Q61098 20-537; Q9Z2B1 20-614)
# T2 sequence (looked up) 1: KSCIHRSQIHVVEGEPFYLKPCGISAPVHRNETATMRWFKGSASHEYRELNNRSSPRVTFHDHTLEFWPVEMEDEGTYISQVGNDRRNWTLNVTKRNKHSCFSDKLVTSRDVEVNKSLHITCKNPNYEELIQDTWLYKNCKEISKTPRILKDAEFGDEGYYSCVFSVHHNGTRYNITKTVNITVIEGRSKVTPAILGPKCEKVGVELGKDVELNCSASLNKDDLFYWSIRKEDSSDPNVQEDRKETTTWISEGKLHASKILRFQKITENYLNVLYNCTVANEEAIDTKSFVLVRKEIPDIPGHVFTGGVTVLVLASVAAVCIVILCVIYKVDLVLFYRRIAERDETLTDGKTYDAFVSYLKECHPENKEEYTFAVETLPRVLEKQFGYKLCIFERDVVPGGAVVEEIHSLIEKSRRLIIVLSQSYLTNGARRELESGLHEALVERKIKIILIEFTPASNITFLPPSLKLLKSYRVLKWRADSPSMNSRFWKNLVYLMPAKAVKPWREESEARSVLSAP
# T2 sequence (looked up) 2: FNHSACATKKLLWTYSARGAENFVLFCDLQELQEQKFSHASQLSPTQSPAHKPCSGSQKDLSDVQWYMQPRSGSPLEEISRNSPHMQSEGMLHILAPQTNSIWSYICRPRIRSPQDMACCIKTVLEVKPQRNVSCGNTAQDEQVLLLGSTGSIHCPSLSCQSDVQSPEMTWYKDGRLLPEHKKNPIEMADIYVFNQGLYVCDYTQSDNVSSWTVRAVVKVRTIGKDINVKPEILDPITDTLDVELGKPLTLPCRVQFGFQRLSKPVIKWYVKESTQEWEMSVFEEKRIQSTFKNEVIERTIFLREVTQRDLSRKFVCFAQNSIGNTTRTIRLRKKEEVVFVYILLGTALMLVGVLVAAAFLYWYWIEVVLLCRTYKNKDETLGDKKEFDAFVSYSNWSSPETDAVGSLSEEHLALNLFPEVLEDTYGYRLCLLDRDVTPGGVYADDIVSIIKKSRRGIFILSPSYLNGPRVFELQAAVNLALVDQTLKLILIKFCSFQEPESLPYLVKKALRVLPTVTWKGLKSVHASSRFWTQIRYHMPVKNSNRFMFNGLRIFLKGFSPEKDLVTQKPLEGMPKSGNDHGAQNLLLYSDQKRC
# T3: human IL-18 binding protein (IL-18BP) (human, UniProt O95998 31-194)
# T3 construct: also called hu IL-18BP; hIL18BP
# T3 sequence (looked up): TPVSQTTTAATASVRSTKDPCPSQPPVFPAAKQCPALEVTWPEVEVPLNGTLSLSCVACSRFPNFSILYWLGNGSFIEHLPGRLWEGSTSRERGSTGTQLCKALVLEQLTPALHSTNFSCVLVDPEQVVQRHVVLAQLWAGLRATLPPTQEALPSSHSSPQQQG
# T4: human IL-18R alpha/beta pair (IL-18Rab) (human, UniProt Q13478 19-329; O95256 20-356)
# T4 construct: also called hu IL-18Rab
# T4 sequence (looked up) 1: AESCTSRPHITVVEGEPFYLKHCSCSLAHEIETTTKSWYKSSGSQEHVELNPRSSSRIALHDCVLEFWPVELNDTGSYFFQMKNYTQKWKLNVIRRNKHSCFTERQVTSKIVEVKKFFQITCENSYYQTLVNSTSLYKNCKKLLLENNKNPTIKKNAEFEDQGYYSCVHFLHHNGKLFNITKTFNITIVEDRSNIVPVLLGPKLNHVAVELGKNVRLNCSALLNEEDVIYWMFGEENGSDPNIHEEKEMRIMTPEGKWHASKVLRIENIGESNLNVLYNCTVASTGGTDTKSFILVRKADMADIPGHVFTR
# T4 sequence (looked up) 2: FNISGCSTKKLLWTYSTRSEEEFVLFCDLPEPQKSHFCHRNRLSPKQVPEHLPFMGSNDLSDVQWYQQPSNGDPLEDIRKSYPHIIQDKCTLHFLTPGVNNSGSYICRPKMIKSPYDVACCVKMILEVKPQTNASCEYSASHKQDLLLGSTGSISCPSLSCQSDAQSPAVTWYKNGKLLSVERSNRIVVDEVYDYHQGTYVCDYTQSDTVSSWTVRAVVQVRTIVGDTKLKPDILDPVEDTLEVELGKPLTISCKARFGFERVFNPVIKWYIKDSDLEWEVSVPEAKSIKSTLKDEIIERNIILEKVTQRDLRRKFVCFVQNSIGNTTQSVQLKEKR
# T5: human IL-18 receptor alpha (IL-18Rα) (human, UniProt Q13478 19-329, limits assumed)
# T5 construct: also called hu IL-18Ra; IL-18R alpha
# T5 sequence (looked up): T4 sequence (looked up) 1
# T6: IL-18 receptors on HEK-Blue IL-18 reporter cells (InvivoGen) (UniProt Q13478 19-541; O95256 20-599)
# T6 sequence (looked up) 1: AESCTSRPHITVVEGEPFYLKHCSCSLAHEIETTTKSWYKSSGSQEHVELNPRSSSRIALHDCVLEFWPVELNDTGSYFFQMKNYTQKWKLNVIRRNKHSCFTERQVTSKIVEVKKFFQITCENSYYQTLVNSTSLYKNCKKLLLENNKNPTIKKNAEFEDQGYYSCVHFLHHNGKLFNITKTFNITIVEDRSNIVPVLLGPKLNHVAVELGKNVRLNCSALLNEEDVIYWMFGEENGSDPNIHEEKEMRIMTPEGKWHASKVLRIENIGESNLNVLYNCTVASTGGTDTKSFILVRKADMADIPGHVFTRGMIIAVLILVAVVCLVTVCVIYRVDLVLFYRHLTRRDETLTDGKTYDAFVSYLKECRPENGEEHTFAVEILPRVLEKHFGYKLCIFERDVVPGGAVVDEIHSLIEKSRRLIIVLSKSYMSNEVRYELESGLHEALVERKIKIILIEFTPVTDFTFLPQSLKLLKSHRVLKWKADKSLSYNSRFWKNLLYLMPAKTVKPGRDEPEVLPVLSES
# T6 sequence (looked up) 2: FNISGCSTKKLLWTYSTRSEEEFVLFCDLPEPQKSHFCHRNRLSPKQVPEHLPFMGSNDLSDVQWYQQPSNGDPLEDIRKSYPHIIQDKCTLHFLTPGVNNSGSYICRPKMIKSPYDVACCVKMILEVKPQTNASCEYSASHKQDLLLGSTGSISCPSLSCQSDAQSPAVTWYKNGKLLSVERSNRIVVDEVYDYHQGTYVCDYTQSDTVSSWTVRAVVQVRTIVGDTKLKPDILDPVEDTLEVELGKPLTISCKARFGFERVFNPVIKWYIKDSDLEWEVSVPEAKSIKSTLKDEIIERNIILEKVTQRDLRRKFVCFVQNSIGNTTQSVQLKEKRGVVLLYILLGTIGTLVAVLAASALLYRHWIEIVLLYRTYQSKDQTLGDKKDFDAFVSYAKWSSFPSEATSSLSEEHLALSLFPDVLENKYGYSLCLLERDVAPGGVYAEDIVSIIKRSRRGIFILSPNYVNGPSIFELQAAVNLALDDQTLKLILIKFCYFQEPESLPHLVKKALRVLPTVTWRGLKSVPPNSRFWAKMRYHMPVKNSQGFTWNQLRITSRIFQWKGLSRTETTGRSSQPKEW
# T7: interleukin 18 binding protein (IL-18BP) (UniProt O95998 31-194)
# T7 sequence (looked up): T3 sequence (looked up)
# T8: IL-18 receptors on HEK-Blue IL-18 reporter cells (UniProt Q13478 19-541; O95256 20-599, limits assumed)
# T8 sequence (looked up) 1: T6 sequence (looked up) 1
# T8 sequence (looked up) 2: T6 sequence (looked up) 2
# T9: interleukin 18 binding protein (IL-18BP) (UniProt O95998 31-194)
# T9 sequence (looked up): T3 sequence (looked up)
# B1: Comparator 5 (ligand)
# chain: HFGRLHCTTAVIRNINDQVLFVDKRQPVFEDMTDIDQSASEPQTRLIIYAYGDSRARGKAVTLSVKDSKMSTLSCKNKIISFEEMDPPENIDDIQSDLIFFQKRVPGHNKMEFESSLYEGHFLACQKEDDAFKLILKKKDENGDKSVMFTLTNLHQS
# B2: IL-18 variant G3V, E6K, K53A (ligand)
# chain: YFVKLKSKLSVIRNLNDQVLFIDQGNRPLFEDMTDSDMRDNAPRTIFIISMYADSQPRGMAVTISVKSEKISTLSSENKIISFKEMNPPDNIKDTKSDIIFFQRSVPGHDNKMQFESSSYEGYFLASEKERDLFKLILKKEDELGDRSIMFTVQNED
# notes: also called G3V, K53A, E6K
# B3: IL-18 variant K53T, S55P (ligand)
# chain: B2 chain with V3G, K6E, A53T, S55P
# B4: IL-18 variant K53H, S55V (ligand)
# chain: B2 chain with V3G, K6E, A53H, S55V
# B5: IL-18 variant K53S, S55K (ligand)
# chain: B2 chain with V3G, K6E, A53S, S55K
# B6: IL-18 variant K53S, S55G (ligand)
# chain: B2 chain with V3G, K6E, A53S, S55G
# B7: IL-18 variant K53T, S55A (ligand)
# chain: B2 chain with V3G, K6E, A53T, S55A
# B8: IL-18 variant G3N, E6Y, K53Q, D54W, S55R, N91T, R104P (ligand)
# chain: B2 chain with V3N, K6Y, A53Q, D54W, S55R, N91T, R104P
# B9: IL-18 variant G3E, E6A, K53Q, D54W, S55V, T63M, N91M, R104N (ligand)
# chain: B2 chain with V3E, K6A, A53Q, D54W, S55V, T63M, N91M, R104N
# B10: IL-18 variant K53S, S55Y (ligand)
# chain: B2 chain with V3G, K6E, A53S, S55Y
# Columns and labels:
# [1] = molecular target: T1, mouse IL-18 binding protein; assay: cell-based or functional assay
# [2] = molecular target: T2, mouse IL-18 receptors on PathHunter …; assay: cell-based or functional assay
# [3] = molecular target: T3, human IL-18 binding protein (IL-18BP); assay: Octet BLI
# Protocol: (§1) Octet 96red instrument was used to determine affinities of IL18 proteins to BP or receptors. 5-10 ug/ml analyte proteins were used for loading on Sartorius tips (AHC or SA). […] 120-180 s loading, 200 s association and 800 s dissociation were used for kinetics. 3-7 data points were used to calculate affinities.
# [4] = molecular target: T4, human IL-18R alpha/beta pair (IL-18Rab); assay: Octet BLI
# Protocol: as §1
# [5] = molecular target: T5, human IL-18 receptor alpha (IL-18Rα); assay: Octet BLI
# Protocol: as §1
# [6] = molecular target: T3, human IL-18 binding protein (IL-18BP); assay: cell-based or functional assay
# [7] = molecular target: T6, IL-18 receptors on HEK-Blue IL-18 …; assay: cell-based or functional assay
# [8] = molecular target: T3, human IL-18 binding protein (IL-18BP); assay: cell-based or functional assay; remark: listed apart in the source
# [9] = molecular target: T6, IL-18 receptors on HEK-Blue IL-18 …; assay: cell-based or functional assay; remark: listed apart in the source
# [10] = molecular target: T7, interleukin 18 binding protein (IL-18BP); assay: cell-based or functional assay
# [11] = molecular target: T8, IL-18 receptors on HEK-Blue IL-18 …; assay: cell-based or functional assay
# [12] = molecular target: T9, interleukin 18 binding protein (IL-18BP); assay: cell-based or functional assay; remark: listed apart in the source
binder,measurement,setting,value
B1,"mouse IL-18 reporter assay EC50, +Mouse IL-18BP 50 nM",[1],0.00091 nM
same,"mouse IL-18 reporter assay EC50, without mouse IL-18BP",[2],0.00149 nM
B2,Kd,[3],19 nM
same,Kd,[4],0.27 nM
same,Kd,[5],52 nM
same,"HEK-Blue Activity Assay Ec50 (pM), +300 nM hu IL-18BP",[6],1.71 pM
same,"HEK-Blue Activity Assay Ec50 (pM), -hu IL-18BP",[7],0.02 pM
same,"Fold Change (BP/NO BP), 50 nM BP",[8],8.67 fold
same,"Fold Change (BP/NO BP), 300 nM BP",[8],74.8 fold
same,"HEK-Blue EC50 pM, +50 nM BP",[8],0.33 pM
same,HEK-blue EC50 (pM) + 300 nM BP,[8],1.71 pM
same,"HEK-Blue EC50 pM, NO BP (50 nM BP run)",[9],0.04 pM
same,"HEK-Blue EC50 pM, NO BP (300 nM BP run)",[9],0.02 pM
B3,HEK-blue EC50 (pM) + 300 nM BP,[10],133 pM
same,Ratio,[10],1.3
same,HEK-blue EC50 (pM) - BP,[11],103 pM
B4,HEK-blue EC50 (pM) + 300 nM BP,[10],> 200 pM
same,Ratio,[10],10.1
same,HEK-blue EC50 (pM) - BP,[11],45.5 pM
B5,HEK-blue EC50 (pM) + 300 nM BP,[10],18.1 pM
same,Ratio,[10],0.8
same,HEK-blue EC50 (pM) - BP,[11],21.8 pM
B6,HEK-blue EC50 (pM) + 300 nM BP,[10],103 pM
same,Ratio,[10],3.1
same,HEK-blue EC50 (pM) - BP,[11],33.4 pM
B7,HEK-blue EC50 (pM) + 300 nM BP,[10],140 pM
same,Ratio,[10],2.1
same,HEK-blue EC50 (pM) - BP,[11],67.4 pM
B8,"Ratio (-BP/+BP), DF-1000005",[12],1.02
same,"Ratio (-BP/+BP), DF-5000006",[12],0.93
same,"Ratio (-BP/+BP), DF-25000007",[12],1.03
B9,"Ratio (-BP/+BP), DF-1000005",[12],0.97
same,"Ratio (-BP/+BP), DF-5000006",[12],1.03
same,"Ratio (-BP/+BP), DF-25000007",[12],0.99
B10,HEK-blue EC50 (pM) + 300 nM BP,[10],136 pM
same,Ratio,[10],1.9
same,HEK-blue EC50 (pM) - BP,[11],70 pM
